IntAct's records for PubMed 12221107

B1: AP-2 complex subunit beta (Homo sapiens), P63010 (parent)
chain: MTDSKYFTTNKKGEIFELKAELNNEKKEKRKEAVKKVIAAMTVGKDVSSLFPDVVNCMQTDNLELKKLVYLYLMNYAKSQPDMAIMAVNSFVKDCEDPNPLIRALAVRTMGCIRVDKITEYLCEPLRKCLKDEDPYVRKTAAVCVAKLHDINAQMVEDQGFLDSLRDLIADSNPMVVANAVAALSEISESHPNSNLLDLNPQNINKLLTALNECTEWGQIFILDCLSNYNPKDDREAQSICERVTPRLSHANSAVVLSAVKVLMKFLELLPKDSDYYNMLLKKLAPPLVTLLSGEPEVQYVALRNINLIVQKRPEILKQEIKVFFVKYNDPIYVKLEKLDIMIRLASQANIAQVLAELKEYATEVDVDFVRKAVRAIGRCAIKVEQSAERCVSTLLDLIQTKVNYVVQEAIVVIRDIFRKYPNKYESIIATLCENLDSLDEPDARAAMIWIVGEYAERIDNADELLESFLEGFHDESTQVQLTLLTAIVKLFLKKPSETQELVQQVLSLATQDSDNPDLRDRGYIYWRLLSTDPVTAKEVVLSEKPLISEETDLIEPTLLDELICHIGSLASVYHKPPNAFVEGSHGIHRKHLPIHHGSTDAGDSPVGTTTATNLEQPQVIPSQGDLLGDLLNLDLGPPVNVPQVSSMQMGAVDLLGGGLDSLVGQSFIPSSVPATFAPSPTPAVVSSGLNDLFELSTGIGMAPGGYVAPKAVWLPAVKAKGLEISGTFTHRQGHIYMEMNFTNKALQHMTDFAIQFNKNSFGVIPSTPLAIHTPLMPNQSIDVSLPLNTLGPVMKMEPLNNLQVAVKNNIDVFYFSCLIPLNVLFVEDGKMERQVFLATWKDIPNENELQFQIKECHLNADTVSSKLQNNNVYTIAKRNVEGQDMLYQSLKLTNGIWILAELRIQPGNPNYTLSLKCRAPEVSQYIYQVYDSILKN
partner: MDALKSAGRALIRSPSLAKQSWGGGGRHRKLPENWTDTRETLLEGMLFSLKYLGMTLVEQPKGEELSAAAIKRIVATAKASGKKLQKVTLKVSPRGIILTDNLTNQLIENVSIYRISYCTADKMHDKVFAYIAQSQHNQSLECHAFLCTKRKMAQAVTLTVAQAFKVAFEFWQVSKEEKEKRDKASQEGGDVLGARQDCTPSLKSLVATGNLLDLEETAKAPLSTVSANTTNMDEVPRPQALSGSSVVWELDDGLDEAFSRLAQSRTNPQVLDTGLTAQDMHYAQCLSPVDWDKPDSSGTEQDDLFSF
B2: Low density lipoprotein receptor adapter protein 1 (Homo sapiens), Q5SW96 (parent)
chain: B1 partner

Variants of: B1
Conditions: with arh_human LDLRAP1, Q5SW96

| effect of a mutation on the interaction | Variant |
| --- | --- |
| decreasing interaction strength | E902A |
| disrupting interaction strength | E849A |

Variants of: B2
Conditions: with ap2b1_human AP2B1, P63010

| effect of a mutation on the interaction | Variant |
| --- | --- |
| disrupting interaction strength | R266A |

Variants of: B2
Conditions: with clh1_bovin CLTC

| effect of a mutation on the interaction | Variant |
| --- | --- |
| disrupting interaction strength | D214A;E216A |
| disrupting interaction strength | L212A;L213A |
